From patent publication US20250388640A1

Target: hIL-12 receptor signaling complex (hIL-12Rβ1 and hIL-12Rβ2) (human) (UniProt P42701)
Assay: cell-based or functional assay

Sequence of hIL-12 receptor signaling complex (hIL-12Rβ1 and hIL-12Rβ2) (human) (Q99665 24-862, chain 2 of 2, other chains not shown): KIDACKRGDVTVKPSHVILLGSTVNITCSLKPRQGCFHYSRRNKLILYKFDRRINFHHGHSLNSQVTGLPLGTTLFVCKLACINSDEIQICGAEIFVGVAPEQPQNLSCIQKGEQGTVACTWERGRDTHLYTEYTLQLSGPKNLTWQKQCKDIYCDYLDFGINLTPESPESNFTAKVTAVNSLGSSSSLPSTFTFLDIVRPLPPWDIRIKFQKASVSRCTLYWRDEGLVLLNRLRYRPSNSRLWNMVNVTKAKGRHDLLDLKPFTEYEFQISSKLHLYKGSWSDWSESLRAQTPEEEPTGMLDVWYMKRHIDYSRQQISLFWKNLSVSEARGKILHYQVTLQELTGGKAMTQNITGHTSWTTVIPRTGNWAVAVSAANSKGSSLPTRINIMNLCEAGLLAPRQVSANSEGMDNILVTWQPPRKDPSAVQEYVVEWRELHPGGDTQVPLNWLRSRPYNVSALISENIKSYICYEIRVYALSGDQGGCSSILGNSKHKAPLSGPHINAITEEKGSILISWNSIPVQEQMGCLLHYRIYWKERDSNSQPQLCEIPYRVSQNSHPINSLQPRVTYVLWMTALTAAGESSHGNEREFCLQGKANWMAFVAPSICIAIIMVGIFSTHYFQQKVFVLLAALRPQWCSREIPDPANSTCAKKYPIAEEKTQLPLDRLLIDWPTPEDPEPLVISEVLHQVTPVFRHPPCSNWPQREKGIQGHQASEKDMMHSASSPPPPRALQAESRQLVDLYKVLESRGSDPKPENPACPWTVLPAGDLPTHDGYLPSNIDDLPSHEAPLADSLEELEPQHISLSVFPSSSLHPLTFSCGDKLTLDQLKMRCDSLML

| Substance | pSTAT4 [%+] EC50, CD8+ T Cells | pSTAT4 [%+] EC50, CD56hi NK Cells | pSTAT4 [%+] Emax, CD8+ T Cells | pSTAT4 [%+] Emax, CD56hi NK Cells | pSTAT4 [gMFI] EC50, CD8+ T Cells | pSTAT4 [gMFI] EC50, CD56hi NK Cells | pSTAT4 [gMFI] Emax, CD8+ T Cells | pSTAT4 [gMFI] Emax, CD56hi NK Cells |
| --- | --- | --- | --- | --- | --- | --- | --- | --- |
| human IL12 mutein of the F82X panel printed as E81A/F82F/K106K in row r9 of Tables 10 and 11 (label printed a second time in r19 with other values) (ligand) | 1.86 nM | 2.27 nM | 75.9 %+ | 78.2 %+ | 6.65 nM | 9.12 nM | 80100 gMFI | 21600 gMFI |
| human IL12 mutein, hIL-12p40 E81A, F82S with hIL-12p35-8X His (from UniProt P29460 23-328; P29459 23-219) (ligand) | 0.86 nM | 1.4 nM | 80.5 %+ | 86.1 %+ | 3.84 nM | 6.29 nM | 95900 gMFI | 26200 gMFI |
